Source: patent US20170219596A1

Legend:
dCas9-SunTag10×_v4 = assay: cell-based or functional assay
[1] = target: mito-mCherry-4×GCN4pep (yeast); assay: FRAP of scFv-GCN4-GFP bound to the mitochondrial scaffold in U2OS cells
[2] = target: mito-mCherry-4×GCN4pep with short linker (GGSGG; SEQ ID NO:3) (yeast); assay: quantitative fluorescence microscopy on mitochondria, normalized to a sfGFP-mCherry fusion; antibodies per 4× array, short linker

| Substance | activation of CDKN1B transcription (mRNA by qPCR, K562 cells) (dCas9-SunTag10×_v4) [%] | activation of CXCR4 expression (CXCR4 protein level by FACS, K562 cells) (dCas9-SunTag10×_v4) [fold] | half-life of GFP fluorescence recovery (FRAP) [1] [min] | average GFP:mCherry molar ratio [2] |
| --- | --- | --- | --- | --- |
| scFv-GCN4-GFP-NLS-VP64 | 330 | 10 to 50 |  |  |
| scFv-GCN4-sfGFP-GB1 |  |  | 5 to 10 | 3.4 |
